Measured values published in US20220403048A1, “BINDING MOLECULES TO ARGINASE II [ARG2]” (Cancer Research Technology Limited, priority 2019, published 2022).
Residue numbers refer to the chain shown, from its start.

Columns and labels:
[1] = target: T1, ARG2 from CCM of LNCaP, A673 and A2780-Cis (Homo sapiens, UniProt P78540); assay: ELISA binding to ARG2 from CCM of cancer cell lines; conditions: biotinylated IgG at 10 μg/ml as detection antibody, FIG. 18
T1 construct: ARG2 is released into the CCM from LNCaP, A673 and A2780-Cis cell lines; endogenous in cells; host or cells: cell conditioned medium of cancer cell lines (LNCaP, A673, A2780-Cis and others)
T1 sequence (P78540 23-354): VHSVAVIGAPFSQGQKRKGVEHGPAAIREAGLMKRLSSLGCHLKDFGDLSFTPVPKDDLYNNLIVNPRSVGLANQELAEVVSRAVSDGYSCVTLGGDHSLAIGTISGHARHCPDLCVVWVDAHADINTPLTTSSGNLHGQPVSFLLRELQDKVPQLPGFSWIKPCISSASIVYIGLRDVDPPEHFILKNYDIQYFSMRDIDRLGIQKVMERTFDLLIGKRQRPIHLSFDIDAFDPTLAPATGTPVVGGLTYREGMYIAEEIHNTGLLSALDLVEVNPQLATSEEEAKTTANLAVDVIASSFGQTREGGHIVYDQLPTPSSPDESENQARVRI
Description: In this experiment the presence of ARG2 in CCM samples was validated using commercial ARG2 ELISA kit (Cloud-Clone Corp., cat. SED796Hu). Additionally, the protocol was modified to include 1st generation IgG C0021061 and 2nd generation IgG C0021158 as detection antibodies to confirm binding of ARG2 IgG's to ARG2 expressed from cancer cell lines (FIG. 18).
The commercial kit is a 96-well plate pre-coated with anti-ARG2, which uses sandwich ELISA to quantify ARG2 in samples. Standards, biotinylated detection antibody, detection, substrate, and stop reagents are all provided in the kit. […] 100 μl of diluted CCM/media control was used for each well of kit and ELISA was performed following manufacturer's protocol. Each sample was run in duplicate. In parallel, CCM/media control samples were also included to test for binding of C0021061 and C0021158 to ARG2 in CCM samples. […] At the end of the assay, absorbance at 450 nm was read out on PheraStar (BMG). The absorbance values of standards were used to make standard curve and was used to interpolate ARG2 levels in CCM samples (where PAD detection antibody supplied with the kit was used). Similarly, absorbance reads from wells that received C0021061 and C0021158 were used to […] and 2nd generation ARG2 IgGs (C0021061 and C0021158 respectively) bind to ARG2 in CCM samples (FIG. 18).

human ARG2 = target: T2, human ARG2 (Homo sapiens, UniProt P78540); assay: X-ray co-crystal structures of ARG2-Fab complexes, buried surface area of epitope residues; conditions: total of interface residues
T2 construct: made in house
T2 sequence (P78540 with tags, fused parts or gaps): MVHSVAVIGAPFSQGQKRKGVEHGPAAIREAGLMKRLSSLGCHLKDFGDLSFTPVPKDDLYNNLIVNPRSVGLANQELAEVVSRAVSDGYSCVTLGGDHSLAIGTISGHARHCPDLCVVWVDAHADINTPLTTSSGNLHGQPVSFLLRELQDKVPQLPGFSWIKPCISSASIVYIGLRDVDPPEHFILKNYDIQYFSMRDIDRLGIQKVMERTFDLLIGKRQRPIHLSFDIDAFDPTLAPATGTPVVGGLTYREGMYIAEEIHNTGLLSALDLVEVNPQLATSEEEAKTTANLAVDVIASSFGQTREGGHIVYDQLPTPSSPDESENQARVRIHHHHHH
Experimental: The construct used for crystal trials was ARG2 (23-354) containing a C-terminal Gly3 linker and His10-tag (ARG2+C0020187, SEQ ID NO: 355: huARG2-His10) or a simple C-terminal His6-tag (ARG2+C0021181 and ARG2+C0021158, SEQ ID NO: 357: huARG2-His6). Crystals suitable for structure determination were obtained using the sitting drop methodology. For ARG2+C0020187, 0.2 μl of complex solution (2.0 mg/ml, ARG2:Fab=3:1, purified by gel filtration) were mixed with 0.1 μl of crystallisation solution containing 2 M (NH4)2SO4. Round, disc-shaped crystals (60×60×20 μm) appeared after 2 days. For ARG2+C0021181, 0.5 μl of complex solution (6.3 mg/ml) were mixed with 0.5 μl of a crystallisation solution containing 100 mM MMT (malic acid:MES:tris=1:2:2) pH 5.0, 20% glycerol, 10% PEG4000, 15 mM NaNO3, 15 mM Na2HPO4, 15 mM (NH4)2SO4. Hexagonal disc-shaped crystals (100×100×20 μm) appeared after 2 days and reached their final size after a week. For ARG2+C0021158, 0.25 μl of complex solution (7.0 mg/ml, containing 20% diluted microseeds of an ARG2+C0021181 crystal) were mixed with 0.25 μl of a crystallisation solution containing 2 M (NH4)2SO4. Crystals of irregular shape (60×60×60 μm) appeared after 2 days. For the ARG2+C0020187 and ARG2+C0021158 crystals, 3 M (NH4)2SO4 and 5% glycerol were added for cryo-protection, after which the crystals were cryo-cooled by plunging them into liquid N2. Data sets were collected at DLS, beamline i04-1 (ARG2+C0020187) or BESSY II, HZB, beamline MX-14-1 (ARG2+C0021181 and ARG2+C0021158). The crystals of ARG2+C0020187 diffracted up to 3.25 Å in space group P 65 2 2 with unit cell parameters a=b=138 Å, c=551 Å.
The structures were solved by molecular replacement using Phaser in the CCP4 program suite using the reported structure of ARG2 (PDB-ID 4HZE) and previously solved high-resolution structures of the individual Fabs in the molecular replacement search. For ARG2+C0020187 the asymmetric unit contained three copies each of ARG2 and the Fab, respectively, with the CL and CH domains being present in different orientations, one of pair which was poorly defined in the electron density. For ARG2+C0021181 and ARG2+C0021158 the asymmetric units contained one copy of ARG2 and one copy of the Fab, however for ARG2+C0021181 only the VL and VH domains of the Fab were well defined, with CL and CH domains most likely being present in two orientations (reflected by the increased B factor and overall worse electron density). Automated and manual refinement was then performed by alternating between using REFMAC5 (with twin- and TLS refinement turned on towards finalising the structures for ARG2+C0021181 and ARG2+C0021158) and COOT, respectively. […]

B1: C0021061: anti-ARG2 antibody, first generation lead, VH SEQ ID NO: 62, VL SEQ ID NO: 67 (antibody, listed as Homo sapiens, V domains shown)
VH: EVQLLESGGGLVQPGGSLRLSCAASGFTFSSYAMSWVRQAPGKGLEWVSAKPTDAGSTYYADSVKGRFTISRDNSKNTLYLQMNSLRAEDTAVYYCARLRADLGLYMDLWGRGTLVTVSS
VL: QSVLTQPPSVSAAPGQKVTISCSGSSSNIGNHYVSWYQQLPGTAPKLLIYNTVYPKSGIPDRFSGSKSGTSATLGITGLQTGDEADYYCGTWDSSLSALVFGGGTKLTVL
modifications: C0021061
- binding to ARG2 from CCM of LNCaP, A673 and A2780-Cis (ELISA) [1]: binding

B2: C0021158: anti-ARG2 antibody, second generation lead, VH SEQ ID NO: 272, VL SEQ ID NO: 277 (antibody, listed as Homo sapiens, V domains shown)
VH: EVQLLESGGGLVQPGGSLRLSCAASGFTFRYEVAAWVRQAPGKGLEWVSAISGPIPKGYYADSVKGRFTISRDNSKNTLYLQMNSLRAEDTAVYYCARLRADLGLYMDLWGRGTLVTVPS
VL: QSVLTQPPSVSAAPGQKVTISCSGSSSNIGNHYVSWYQQLPGTAPKLLIYDNSERTAGVPDRFSGSKSGTSATLGITGLQTGDEADYYCGTWDELTSNLVFGGGTKLTVL
modifications: C0021158
- binding to ARG2 from CCM of LNCaP, A673 and A2780-Cis (ELISA) [1]: binding
- % buried (human ARG2; C0021158 complex): 50%
- ASA (solvent accessible surface area) (human ARG2; C0021158 complex): 2012.6 Å^2
- BSA (buried surface area) (human ARG2; C0021158 complex): 1000.3 Å^2

B3: C0021181: anti-ARG2 antibody, VH SEQ ID NO: 342, VL SEQ ID NO: 347 (antibody, listed as Homo sapiens, V domains shown)
VH: EVQLLESGGGLVRPGGSLRLSCAASEFTFRYDYHVWVRQAPGKGLEWVSAISGSGGSTYYADSVKSRFTISRDNSKNTLYLQMNSLRAEDTAVYYCARLRADLGLYMDLWGRGTLVTVSS
VL: B2 VL with T19A, I20V, N31S, A57S, V59I, K106R
modifications: C0021181
- % buried (human ARG2; C0021181 complex): 50%
